± gives the standard error. This sample holds only a part of the variants without activity.
B1: glmS ribozyme (parent)
chain: AUAAAAGCGCCAGAACUACAGAAAUGUAGUUGACGAGGAGGAGGUUUAUCGAAUUUUCGGCGGAUGCCUCCAAA

Columns and labels:
Settings in all cases: with glucosamine-6-phosphate
[1] = variants of: B1; assay: self-cleavage kobs at 160 uM GlcN6P; higher = faster cleavage; RNA array
Outline: (§1)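 Barcoded ribozyme variants, transcribed in situ by E. coli RNA polymerase on sequenced MiSeq chips, were followed via a hybridised Cy3 probe at 37 °C. Glucosamine-6-phosphate ranged from 40 μM to 10 mM in HEPES/KCl/Mg(OAc)2 buffer. kobs came from decay fits to per-tile medians, and kcat and KM from weighted Michaelis–Menten fits.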

[2] = variants of: B1; assay: self-cleavage kobs at 640 uM GlcN6P; higher = faster cleavage; RNA array
Outline: as §1

[3] = variants of: B1; assay: self-cleavage kobs at 2500 uM GlcN6P; higher = faster cleavage; RNA array
Outline: as §1

[4] = variants of: B1; assay: self-cleavage kobs at 10000 uM GlcN6P; higher = faster cleavage; RNA array
Outline: as §1

Variant	self-cleavage kobs at 160 uM GlcN6P [1]	self-cleavage kobs at 640 uM GlcN6P [2]	self-cleavage kobs at 2500 uM GlcN6P [3]	self-cleavage kobs at 10000 uM GlcN6P [4]
G13U G32U C34A G35U	< 1e-05 s⁻¹	< 1e-05 s⁻¹	< 1e-05 s⁻¹	
U31A G43A	< 1e-05 s⁻¹	< 1e-05 s⁻¹		2.99e-05 ± 9.3e-06 s⁻¹
G35C C71A	< 1e-05 s⁻¹	< 1e-05 s⁻¹	< 1e-05 s⁻¹	
C34A U45G G66U U69G	< 1e-05 s⁻¹	< 1e-05 s⁻¹	< 1e-05 s⁻¹	
G32C G51C C68U	< 1e-05 s⁻¹		< 1e-05 s⁻¹	
G9C U49C	< 1e-05 s⁻¹	< 1e-05 s⁻¹	< 1e-05 s⁻¹	< 1e-05 s⁻¹
G9U G29A G35U U46G	< 1e-05 s⁻¹	< 1e-05 s⁻¹	< 1e-05 s⁻¹	
G35A C68U	< 1e-05 s⁻¹		< 1e-05 s⁻¹	
A15G U55G C70A	7.19e-05 ± 1.2e-05 s⁻¹	0.000151 ± 2.6e-05 s⁻¹	0.000186 ± 3.7e-05 s⁻¹	
A15C U30G U31G	0.00201 ± 0.00083 s⁻¹	0.0146 ± 0.0069 s⁻¹	0.00946 ± 0.0035 s⁻¹	
G29A G35A	< 1e-05 s⁻¹		< 1e-05 s⁻¹	
A36G G40A G44A U46G G51C	< 1e-05 s⁻¹		< 1e-05 s⁻¹	
U31C G32C A33U C34A U49A	< 1e-05 s⁻¹		< 1e-05 s⁻¹	< 1e-05 s⁻¹
C10G G32U C34U G40U G41C	< 1e-05 s⁻¹	< 1e-05 s⁻¹	< 1e-05 s⁻¹	
A15G U55G C71G	0.00025 ± 5.3e-05 s⁻¹	0.000408 ± 9.6e-05 s⁻¹	0.000866 ± 0.00028 s⁻¹	
A33C G40C A52G G63A	< 1e-05 s⁻¹	< 1e-05 s⁻¹	< 1e-05 s⁻¹	
A12G A39U A53C	< 1e-05 s⁻¹			
A12G G40A C61U	< 1e-05 s⁻¹			
A12U G35A G40U	< 1e-05 s⁻¹	< 1e-05 s⁻¹	< 1e-05 s⁻¹	
G13U G32A G41C G63U C71A	< 1e-05 s⁻¹	< 1e-05 s⁻¹	< 1e-05 s⁻¹	
G9U G37C	< 1e-05 s⁻¹	< 1e-05 s⁻¹	< 1e-05 s⁻¹	< 1e-05 s⁻¹
A15G A33C C58G	< 1e-05 s⁻¹	< 1e-05 s⁻¹		
G13U A42U	< 1e-05 s⁻¹	< 1e-05 s⁻¹	< 1e-05 s⁻¹	
G9U U45C	< 1e-05 s⁻¹	< 1e-05 s⁻¹	< 1e-05 s⁻¹	< 1e-05 s⁻¹
A33U G38U G41C G66U	< 1e-05 s⁻¹		< 1e-05 s⁻¹	

Variant	self-cleavage kobs at 160 uM GlcN6P [1]	self-cleavage kobs at 640 uM GlcN6P [2]	self-cleavage kobs at 2500 uM GlcN6P [3]	self-cleavage kobs at 10000 uM GlcN6P [4]
C11G U46G C61A G66A	< 1e-05 s⁻¹	< 1e-05 s⁻¹	< 1e-05 s⁻¹	
A14G A15G G35U	< 1e-05 s⁻¹	< 1e-05 s⁻¹	< 1e-05 s⁻¹	
A33G G37A A39C G63C C68G	< 1e-05 s⁻¹	< 1e-05 s⁻¹		
C10G G13A U31A C50A G59U	< 1e-05 s⁻¹			
A15G G40A A53G	0.000772 ± 0.00017 s⁻¹		0.00292 ± 0.00062 s⁻¹	
A15C A36U A39G	< 1e-05 s⁻¹	< 1e-05 s⁻¹	< 1e-05 s⁻¹	< 1e-05 s⁻¹
G9C G38C G63U	< 1e-05 s⁻¹		< 1e-05 s⁻¹	
A14G G29U A52C C68A	0.000918 ± 0.00046 s⁻¹	0.000113 ± 4.7e-05 s⁻¹		
C11G A14C U69A	0.000527 ± 0.00014 s⁻¹		9.25e-05 ± 3.6e-05 s⁻¹	
A15G G51C	< 1e-05 s⁻¹	< 1e-05 s⁻¹	< 1e-05 s⁻¹	< 1e-05 s⁻¹
C10U A42C G63A	< 1e-05 s⁻¹	< 1e-05 s⁻¹	< 1e-05 s⁻¹	
A33U G38A A39G	< 1e-05 s⁻¹	< 1e-05 s⁻¹		
G13C A39C A53C	< 1e-05 s⁻¹			
A15C A64U	< 1e-05 s⁻¹	< 1e-05 s⁻¹		
U31A A33G	< 1e-05 s⁻¹	< 1e-05 s⁻¹		< 1e-05 s⁻¹
C16G A52G U69G	9.5e-05 ± 3e-05 s⁻¹		0.000143 ± 3.9e-05 s⁻¹	
G32C A36U C50A C70G	0.0002 ± 3.9e-05 s⁻¹	0.000332 ± 8.2e-05 s⁻¹	0.000299 ± 0.0001 s⁻¹	
A15U C34U C50G	0.000153 ± 3.2e-05 s⁻¹		0.000132 ± 3.4e-05 s⁻¹	
C10A G40A C71A	< 1e-05 s⁻¹	< 1e-05 s⁻¹		
C11G U47G	< 1e-05 s⁻¹		< 1e-05 s⁻¹	< 1e-05 s⁻¹
C10G G37C A48U C61A U69C	< 1e-05 s⁻¹		< 1e-05 s⁻¹	
A36U C61G C70G	6.28e-05 ± 2.3e-05 s⁻¹	9.55e-05 ± 2.6e-05 s⁻¹		
C34U U47G	< 1e-05 s⁻¹	< 1e-05 s⁻¹		
A14U U45A U46C	0.000306 ± 0.0001 s⁻¹	0.00108 ± 0.00027 s⁻¹	0.00191 ± 0.00053 s⁻¹	

Reference: the supplement of paper PMC7125110
